Target: T1, recombinant mouse CCR5 (MyBioSource) (mouse, UniProt P51682 1-354, limits assumed)
T1 construct: Coated on ELISA plates at 20 nM; also called mrCCR5
Experiment: competition ELISA: hNAMPTcif 0-100 nM against 100 nM hrNAMPT(1) on coated recombinant mouse CCR5
Description: hrNAMPT competitive binding to mrCCR5: ELISA plates (Medium binding, Greiner Bio-One) were coated with 1% BSA or 20 nM of recombinant mouse CCR5 (MyBioSource) in PBS overnight at 4° C. Then, wells were blocked for 1 h at room temperature with 1% BSA in PBS containing 0.05% Tween-20 (PBS-T). Wells were washed 3 times with PBS-T and further incubated with hNAMPTcif at increasing concentration (0 nM to 100 nM) for 1 h in PBS-T with 0.1% BSA containing 100 nM hrNAMPT (1) (Peprotech). Bound hrNAMPT (1) molecules were detected using a biotinylated antibody for NAMPT and HRP-streptavidin (Human PBEF/Visfatin DuoSet ELISA, R&D Systems). Signals obtained on BSA-coated wells were used to remove non-specific binding for each hrNAMPT concentrations to obtain specific binding values. Specific binding data were fitted by non-linear regression with Prism 7 to obtain the half maximal inhibitory concentration (IC50) of hNAMPTnif using A450nm=A450nmMin+(A450nmMax−A450nmMin)/(1+10\hat{ }(X-LogIC50)).

T1 sequence (P51682 whole entry): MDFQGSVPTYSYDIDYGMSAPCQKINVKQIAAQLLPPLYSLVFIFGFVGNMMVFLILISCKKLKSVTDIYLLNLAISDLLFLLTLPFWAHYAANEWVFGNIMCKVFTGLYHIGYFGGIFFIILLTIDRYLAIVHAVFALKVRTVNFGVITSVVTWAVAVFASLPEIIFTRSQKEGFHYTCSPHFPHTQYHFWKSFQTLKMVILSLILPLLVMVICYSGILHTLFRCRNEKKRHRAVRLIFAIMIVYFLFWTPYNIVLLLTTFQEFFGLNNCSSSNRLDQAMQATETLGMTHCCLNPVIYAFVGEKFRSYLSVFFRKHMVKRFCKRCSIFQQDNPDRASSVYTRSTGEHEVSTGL

B1: human NAMPT cytokine finger (hNAMPTcif; NAMPT402-491) (ligand)
chain: SYVVTNGLGINVFKDPVADPNKRSKKGRLSLHRTPAGNFVTLEEGKGDLEEYGQDLLHTVFKNGKVTKSYSFDEIRKNAQLNIELEAAHH
notes: also called hNAMPTnif
For B1, the IC50 was 21.5 nM.
